In the RNAGym collection of RNA variant scans (doi:10.7554/elife.80360):

B1: CPEB3 Ribozyme (parent)
chain: GGGGGCCACAGCAGAAGCGUUCACGUCGCGGCCCCUGUCAGAUUCUGGUGAAUCUGCGAAUUCUGCUGU

Variants of: B1
Test: self-cleavage, relative activity (ratio to wild type); higher = more cleavage; co-transcriptional

Variant	self-cleavage
GGGGGACACAGCGGAAGCGUUCACGUCGCGGCCCCUGUCAGAUUCUGGUGAAUCUGCGAAUUCUGCUGU [C6A A13G]	0.506
GGGGUCCACAGCAGAAGCGUUCACGUCGCGGCCCCUGUCAGAUUCUGCUGAAUCUGCGAAUUCUGCUGU [G5U G48C]	0.327
GGGGUCCACAGCAGAAGCGUUCACGUCGCGGCCCCUGUCAGAUUCUGUUGAAUCUGCGAAUUCUGCUGU [G5U G48U]	0.332
GGGGUCCACAGCAGAAGCCUUCACGUCGCGGCCCCUGUCAGAUUCUGGUGAAUCUGCGAAUUCUGCUGU [G5U G19C]	0.0535
GGGGUCCACAGCAGAAGCUUUCACGUCGCGGCCCCUGUCAGAUUCUGGUGAAUCUGCGAAUUCUGCUGU [G5U G19U]	0.0974
GGGGUCCACAGCAGAACCGUUCACGUCGCGGCCCCUGUCAGAUUCUGGUGAAUCUGCGAAUUCUGCUGU [G5U G17C]	0.0663
GGGGUCCACAGCAGAAUCGUUCACGUCGCGGCCCCUGUCAGAUUCUGGUGAAUCUGCGAAUUCUGCUGU [G5U G17U]	0.0412
GGGGUCCACAGCAGAAGCGUUCACGUCGCGGCCCCGGUCAGAUUCUGGUGAAUCUGCGAAUUCUGCUGU [G5U U36G]	0.343
GGGGUCCACAGCAGAAGCGUUCACGUCGCGGCCCCAGUCAGAUUCUGGUGAAUCUGCGAAUUCUGCUGU [G5U U36A]	0.0704
GGGGUCCACAGCAGAAGCGUUCACGUCGCGGCCCCUGUCAGAUCCUGGUGAAUCUGCGAAUUCUGCUGU [G5U U44C]	0.192
GGGGUCCACAGCAGAAGCGUUCACGUCGCGGCCCCUGUCAGAUACUGGUGAAUCUGCGAAUUCUGCUGU [G5U U44A]	0.125
GGGGUCCACAGCAGAAGCGUUCACGUCGCGGCCCCUGUCAGAUGCUGGUGAAUCUGCGAAUUCUGCUGU [G5U U44G]	0.0852
GGGGUCCACAGCAGAAGCGUUCACGGCGCGGCCCCUGUCAGAUUCUGGUGAAUCUGCGAAUUCUGCUGU [G5U U26G]	0.103
GGGGUCCACAGCAGAAGCGUUCACGACGCGGCCCCUGUCAGAUUCUGGUGAAUCUGCGAAUUCUGCUGU [G5U U26A]	0.132
GGGGUCCACAGCAGAAGCGUUCACGUCGCGGCCCCUGUCACAUUCUGGUGAAUCUGCGAAUUCUGCUGU [G5U G41C]	0.113
GGGGUCCACAGCAGAAGCGUUCACGUCGCGGCCCCUGUCAUAUUCUGGUGAAUCUGCGAAUUCUGCUGU [G5U G41U]	0.0869
GGGGUCCACAGCAGAAGCGUUCACGUCGCGCCCCCUGUCAGAUUCUGGUGAAUCUGCGAAUUCUGCUGU [G5U G31C]	0.0656
GGGGUCCACAGCAGAAGCGUUCACGUCGCGACCCCUGUCAGAUUCUGGUGAAUCUGCGAAUUCUGCUGU [G5U G31A]	0.132
GGGGUCCACAGCAGAAGCGCUCACGUCGCGGCCCCUGUCAGAUUCUGGUGAAUCUGCGAAUUCUGCUGU [G5U U20C]	0.0958
GGGGUCCACAGCAGAAGCGGUCACGUCGCGGCCCCUGUCAGAUUCUGGUGAAUCUGCGAAUUCUGCUGU [G5U U20G]	0.0745
GGGGUCCACAGCAGAAGCGAUCACGUCGCGGCCCCUGUCAGAUUCUGGUGAAUCUGCGAAUUCUGCUGU [G5U U20A]	0.0505
GGGGGACUCAGCAGAAGCGUUCACGUCGCGGCCCCUGUCAGAUUCUGGUGAAUCUGCGAAUUCUGCUGU [C6A A8U]	0.607
GGGGGACCCAGCAGAAGCGUUCACGUCGCGGCCCCUGUCAGAUUCUGGUGAAUCUGCGAAUUCUGCUGU [C6A A8C]	0.733
GGGGUCCACAGCAGAAGCGUUCACGUCGCUGCCCCUGUCAGAUUCUGGUGAAUCUGCGAAUUCUGCUGU [G5U G30U]	0.0993
GGGGUCCACAGCAGAAGCGUUCACGUCGCCGCCCCUGUCAGAUUCUGGUGAAUCUGCGAAUUCUGCUGU [G5U G30C]	0.08
GGGGGACACAGCAGAAGCGUUCACGUCGCGGCCCCUGUCAGCUUCUGGUGAAUCUGCGAAUUCUGCUGU [C6A A42C]	0.221

Variant	self-cleavage
GGGGUCCACAGCAGAAGCGUUCACGUCGCGGCCCCUGUCAGAUUCUGGUGAAUCUGCGAAAUCUGCUGU [G5U U61A]	0.108
GGGGUCCACAGCAGAAGCGUUCACGUCGCGGCCCCUGUCAGAUUCUGGUGAAUCUGCGAACUCUGCUGU [G5U U61C]	0.0722
GGGGGACACAGCAGAAGCGUUCACGUCGCGGCCCCUGUCCGAUUCUGGUGAAUCUGCGAAUUCUGCUGU [C6A A40C]	0.177
GGGGGACACAGCAGAAGCGUUCACGUCGCGGCCCCUGUCGGAUUCUGGUGAAUCUGCGAAUUCUGCUGU [C6A A40G]	0.426
GGGGGACACAGCAGAAGCGUUCACGUCGCGGCCCCUGUCUGAUUCUGGUGAAUCUGCGAAUUCUGCUGU [C6A A40U]	0.346
GGGGUCCACAGCAGAAGCGUUCACGUCGCGGCCCCUGUCAGAUUCUGGUGAAUCAGCGAAUUCUGCUGU [G5U U55A]	0.0876
GGGGUCCACAGCAGAAGCGUUCACGUCGCGGCCCCUGUCAGAUUCUGGUGAAUCGGCGAAUUCUGCUGU [G5U U55G]	0.0798
GGGGUCCACAGCAGAAGCGUUCACGUCGCGGCCCCUGUCAGAUUCUGGCGAAUCUGCGAAUUCUGCUGU [G5U U49C]	0.232
GGGGUCCACAGCAGAAGCGUUCACGUCGCGGCCCCUGUCAGAUUCUGGAGAAUCUGCGAAUUCUGCUGU [G5U U49A]	0.316
GGGGUCCACAGCAGAAGCGUUCACGUCGCGGCCCCUGCCAGAUUCUGGUGAAUCUGCGAAUUCUGCUGU [G5U U38C]	0.174
GGGGUCCACAGCAGAAGCGUUCACGUCGCGGCCCCUGUCAGAUUCUGGUGAAUCUGCGAAUACUGCUGU [G5U U62A]	0.123
GGGGUCCACAGCAGAAGCGUUCACGUCGCGGCCCCUGUCAGAUUCUGGUGAAUCUGCGAAUUCUUCUGU [G5U G65U]	0.0885
GGGGUCCACAGCAGAAGCGUUCACGUCGCGGCCCCUGUCAGAUUCUGGUGAAUCUGCGAAUUCUACUGU [G5U G65A]	0.187
GGGGGACACAGCAGCAGCGUUCACGUCGCGGCCCCUGUCAGAUUCUGGUGAAUCUGCGAAUUCUGCUGU [C6A A15C]	0.235
GGGGGACACAGCAGAAGCGUUCCCGUCGCGGCCCCUGUCAGAUUCUGGUGAAUCUGCGAAUUCUGCUGU [C6A A23C]	0.519
GGGGGACACAGCAGAAGCGUUCGCGUCGCGGCCCCUGUCAGAUUCUGGUGAAUCUGCGAAUUCUGCUGU [C6A A23G]	0.511
GGGGGACACAGCAGAAGCGUUCUCGUCGCGGCCCCUGUCAGAUUCUGGUGAAUCUGCGAAUUCUGCUGU [C6A A23U]	0.749
GGGGGACACAGCAGAUGCGUUCACGUCGCGGCCCCUGUCAGAUUCUGGUGAAUCUGCGAAUUCUGCUGU [C6A A16U]	0.159
GGGGGACACAGCAGAGGCGUUCACGUCGCGGCCCCUGUCAGAUUCUGGUGAAUCUGCGAAUUCUGCUGU [C6A A16G]	0.418
GGGGGACACAGCAGACGCGUUCACGUCGCGGCCCCUGUCAGAUUCUGGUGAAUCUGCGAAUUCUGCUGU [C6A A16C]	0.0824
GGGGUCCACAGCAGAAGCGUUCACGUCGCGGCCCCUUUCAGAUUCUGGUGAAUCUGCGAAUUCUGCUGU [G5U G37U]	0.0584
GGGGUCCACAGCAGAAGCGUUCACGUCGCGGCCCCUCUCAGAUUCUGGUGAAUCUGCGAAUUCUGCUGU [G5U G37C]	0.119
GGGGUCCACAGCAGAAGCGUUCACGUCGCGGCCCCUGUCAGAUUCUGGUGAAUCUGCGAAUUCUGCUGG [G5U U69G]	0.671
GGGGUCCACAGCAGAAGCGUUCACGUCGCGGCCCCUGUCAGAUUCUGGUGAAUCUGCGAAUUCUGCGGU [G5U U67G]	0.615
GGGGUCCACAGCAGAAGCGUUCACGUCGCGGCCCCUGUCAGAUUCUAGUGAAUCUGCGAAUUCUGCUGU [G5U G47A]	0.294
GGGGUCCACAGCAGAAGCGUUCACGUCGCGGCCCCUGUCAGAUUCUUGUGAAUCUGCGAAUUCUGCUGU [G5U G47U]	0.296

Variant	self-cleavage
GGGGUCCACAGCAGAAGCGUUCACGUCGCGGCCCCUGUCAGAUUCUCGUGAAUCUGCGAAUUCUGCUGU [G5U G47C]	0.277
GGGGUCCACAGCAGAAGCGUUCACGUCGCGGCCCCUGUCAGAUUCUGGUGAAUCUGCGAAUUCCGCUGU [G5U U64C]	0.195
GGGGUCCACAGCAGAAGCGUUCACGUCGCGGCCCCUGUCAGAUUCUGGUGAAUCUGCGAAUUCAGCUGU [G5U U64A]	0.109
GGGGUCCACAGCAGAAGCGUUCACGUCGCGGCCCCUGUCAGAUUCUGGUGAAUCUGCGAAUUCGGCUGU [G5U U64G]	0.194
GGGGUCCACAGCAGAAGCGUUCACGUCGCGGCCCCUGUCAGAGUCUGGUGAAUCUGCGAAUUCUGCUGU [G5U U43G]	0.161
GGGGUCCACAGCAGAAGCGUUCACGUCGCGGCCCCUGUCAGAUUCUGGUGAAUCUGCGAAUUCUGCUAU [G5U G68A]	0.886
GGGGUCCACAGCAGAAGCGUUCACGUCGCGGCCCCUGUCAGAUUCUGGUGAAUCUGCGAAUUCUGCUCU [G5U G68C]	0.716
GGGGUCCACAGCAGAAGCGUUCACGUCGCGGCCCCUGUCAGAUUCUGGUGAAUCUGCGAAUUCUGCUUU [G5U G68U]	0.793
GGGGUCCACAGCAGAAGCGUUCACGUCCCGGCCCCUGUCAGAUUCUGGUGAAUCUGCGAAUUCUGCUGU [G5U G28C]	0.0876
GGGGUCCACAGCAGAAGCGUUCACGUCACGGCCCCUGUCAGAUUCUGGUGAAUCUGCGAAUUCUGCUGU [G5U G28A]	0.046
GGGGUCCACAGCAGAAGCGUUCACGUCUCGGCCCCUGUCAGAUUCUGGUGAAUCUGCGAAUUCUGCUGU [G5U G28U]	0.0687
GGGGGACACGGCAGAAGCGUUCACGUCGCGGCCCCUGUCAGAUUCUGGUGAAUCUGCGAAUUCUGCUGU [C6A A10G]	0.798
GGGGGACACUGCAGAAGCGUUCACGUCGCGGCCCCUGUCAGAUUCUGGUGAAUCUGCGAAUUCUGCUGU [C6A A10U]	0.903
GGGGGACACCGCAGAAGCGUUCACGUCGCGGCCCCUGUCAGAUUCUGGUGAAUCUGCGAAUUCUGCUGU [C6A A10C]	0.67
GGGGUCCACAGCAGAAGCGUCCACGUCGCGGCCCCUGUCAGAUUCUGGUGAAUCUGCGAAUUCUGCUGU [G5U U21C]	0.119
GGGGUCCACAGCAGAAGCGUACACGUCGCGGCCCCUGUCAGAUUCUGGUGAAUCUGCGAAUUCUGCUGU [G5U U21A]	0.158
GGGGGACACAGCAGAAGCGUUCACGUCGCGGCCCCUGUCAGAUUCUGGUGAAUCUGCGAAUUCUGCUGU [C6A]	0.705
GGGGUCCACAGCAGAAGCGUUCACGUCGCGGCCCCUGUCAGAUUCUGGUUAAUCUGCGAAUUCUGCUGU [G5U G50U]	0.313
GGGGUCCACAGCAGAAGCGUUCACGUCGCGGCCCCUGUCAGAUUCUGGUCAAUCUGCGAAUUCUGCUGU [G5U G50C]	0.341
GGGGUCCACAGCAGAAGCGUUCACGUCGCGGCCCCUGUCAGAUUCUGGUGAAGCUGCGAAUUCUGCUGU [G5U U53G]	0.152
GGGGUCCACAGCAGAAGCGUUCACGUCGCGGCCCCUGUCAGAUUCCGGUGAAUCUGCGAAUUCUGCUGU [G5U U46C]	0.254
GGGGUCCACAGCAGAAGCGUUCACGUCGCGGCCCCUGUCAGAUUCGGGUGAAUCUGCGAAUUCUGCUGU [G5U U46G]	0.321
GGGGUCCACAGCAGAAGCGUUCACGUCGCGGCCCCUGUCAGAUUCAGGUGAAUCUGCGAAUUCUGCUGU [G5U U46A]	0.24
GGGGUCCACAGCAGAAGCGUUCACCUCGCGGCCCCUGUCAGAUUCUGGUGAAUCUGCGAAUUCUGCUGU [G5U G25C]	0.0917
GGGGUCCACAGCAGAAGCGUUCACUUCGCGGCCCCUGUCAGAUUCUGGUGAAUCUGCGAAUUCUGCUGU [G5U G25U]	0.0766
GGGGUCCACAGCAGAAGCGUUCACAUCGCGGCCCCUGUCAGAUUCUGGUGAAUCUGCGAAUUCUGCUGU [G5U G25A]	0.0881
